In IntAct's records for PubMed 16902405:

Experiments:
rab5a_human RAB5A [1] = biological target: rab5a_human RAB5A (UniProt P20339)
rab1a_human RAB1A [2] = biological target: rab1a_human RAB1A (UniProt P62820)
clh1_human CLTC [3] = biological target: clh1_human CLTC (UniProt Q00610)
rab6a_human RAB6A [4] = biological target: rab6a_human RAB6A (UniProt P20340)
rab1a_human RAB1A [5] = biological target: rab1a_human RAB1A (UniProt P62820); remark: listed apart in the source
rab5a_human RAB5A [6] = biological target: rab5a_human RAB5A (UniProt P20339); remark: listed apart in the source
rab6a_human RAB6A [7] = biological target: rab6a_human RAB6A (UniProt P20340); remark: listed apart in the source
rab6a_human RAB6A [8] = biological target: rab6a_human RAB6A (UniProt P20340); remark: listed apart in the source
clh1_human CLTC [9] = biological target: clh1_human CLTC (UniProt Q00610); remark: listed apart in the source
clh1_human CLTC [10] = biological target: clh1_human CLTC (UniProt Q00610); remark: listed apart in the source
rab6a_human RAB6A [11] = biological target: rab6a_human RAB6A (UniProt P20340); remark: listed apart in the source
rab1a_human RAB1A [12] = biological target: rab1a_human RAB1A (UniProt P62820); remark: listed apart in the source
rab6a_human RAB6A [13] = biological target: rab6a_human RAB6A (UniProt P20340); remark: listed apart in the source
rab5a_human RAB5A [14] = biological target: rab5a_human RAB5A (UniProt P20339); remark: listed apart in the source
rab1a_human RAB1A [15] = biological target: rab1a_human RAB1A (UniProt P62820); remark: listed apart in the source
rab6a_human RAB6A [16] = biological target: rab6a_human RAB6A (UniProt P20340); remark: listed apart in the source
rab5a_human RAB5A [17] = biological target: rab5a_human RAB5A (UniProt P20339); remark: listed apart in the source

Sequence of Inositol polyphosphate 5-phosphatase OCRL (Homo sapiens), Q01968 S568G (Q01968 whole entry S568G): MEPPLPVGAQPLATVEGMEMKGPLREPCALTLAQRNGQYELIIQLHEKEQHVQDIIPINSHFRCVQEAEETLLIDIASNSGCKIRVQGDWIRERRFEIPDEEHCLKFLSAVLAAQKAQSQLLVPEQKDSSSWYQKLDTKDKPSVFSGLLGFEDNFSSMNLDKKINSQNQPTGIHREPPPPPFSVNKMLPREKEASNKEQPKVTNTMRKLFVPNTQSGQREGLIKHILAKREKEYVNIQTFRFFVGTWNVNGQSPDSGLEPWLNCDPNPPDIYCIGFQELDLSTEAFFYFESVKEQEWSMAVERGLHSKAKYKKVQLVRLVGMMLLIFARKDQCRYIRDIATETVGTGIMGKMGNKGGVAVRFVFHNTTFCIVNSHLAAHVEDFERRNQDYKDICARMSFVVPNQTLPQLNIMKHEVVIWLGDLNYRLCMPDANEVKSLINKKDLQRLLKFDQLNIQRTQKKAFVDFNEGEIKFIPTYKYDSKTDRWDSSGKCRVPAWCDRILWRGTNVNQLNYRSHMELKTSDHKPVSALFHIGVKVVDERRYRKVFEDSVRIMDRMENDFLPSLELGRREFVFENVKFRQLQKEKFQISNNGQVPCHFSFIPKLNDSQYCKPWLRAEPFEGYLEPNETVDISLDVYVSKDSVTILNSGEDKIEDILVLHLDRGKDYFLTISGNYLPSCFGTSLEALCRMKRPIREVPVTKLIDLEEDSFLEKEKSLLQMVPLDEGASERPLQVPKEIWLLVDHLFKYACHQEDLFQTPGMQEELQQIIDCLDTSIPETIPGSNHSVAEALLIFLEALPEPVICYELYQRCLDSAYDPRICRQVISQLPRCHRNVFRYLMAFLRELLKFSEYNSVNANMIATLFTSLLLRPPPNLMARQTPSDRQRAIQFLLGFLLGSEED
Sequence of clh1_human CLTC (Q00610 whole entry): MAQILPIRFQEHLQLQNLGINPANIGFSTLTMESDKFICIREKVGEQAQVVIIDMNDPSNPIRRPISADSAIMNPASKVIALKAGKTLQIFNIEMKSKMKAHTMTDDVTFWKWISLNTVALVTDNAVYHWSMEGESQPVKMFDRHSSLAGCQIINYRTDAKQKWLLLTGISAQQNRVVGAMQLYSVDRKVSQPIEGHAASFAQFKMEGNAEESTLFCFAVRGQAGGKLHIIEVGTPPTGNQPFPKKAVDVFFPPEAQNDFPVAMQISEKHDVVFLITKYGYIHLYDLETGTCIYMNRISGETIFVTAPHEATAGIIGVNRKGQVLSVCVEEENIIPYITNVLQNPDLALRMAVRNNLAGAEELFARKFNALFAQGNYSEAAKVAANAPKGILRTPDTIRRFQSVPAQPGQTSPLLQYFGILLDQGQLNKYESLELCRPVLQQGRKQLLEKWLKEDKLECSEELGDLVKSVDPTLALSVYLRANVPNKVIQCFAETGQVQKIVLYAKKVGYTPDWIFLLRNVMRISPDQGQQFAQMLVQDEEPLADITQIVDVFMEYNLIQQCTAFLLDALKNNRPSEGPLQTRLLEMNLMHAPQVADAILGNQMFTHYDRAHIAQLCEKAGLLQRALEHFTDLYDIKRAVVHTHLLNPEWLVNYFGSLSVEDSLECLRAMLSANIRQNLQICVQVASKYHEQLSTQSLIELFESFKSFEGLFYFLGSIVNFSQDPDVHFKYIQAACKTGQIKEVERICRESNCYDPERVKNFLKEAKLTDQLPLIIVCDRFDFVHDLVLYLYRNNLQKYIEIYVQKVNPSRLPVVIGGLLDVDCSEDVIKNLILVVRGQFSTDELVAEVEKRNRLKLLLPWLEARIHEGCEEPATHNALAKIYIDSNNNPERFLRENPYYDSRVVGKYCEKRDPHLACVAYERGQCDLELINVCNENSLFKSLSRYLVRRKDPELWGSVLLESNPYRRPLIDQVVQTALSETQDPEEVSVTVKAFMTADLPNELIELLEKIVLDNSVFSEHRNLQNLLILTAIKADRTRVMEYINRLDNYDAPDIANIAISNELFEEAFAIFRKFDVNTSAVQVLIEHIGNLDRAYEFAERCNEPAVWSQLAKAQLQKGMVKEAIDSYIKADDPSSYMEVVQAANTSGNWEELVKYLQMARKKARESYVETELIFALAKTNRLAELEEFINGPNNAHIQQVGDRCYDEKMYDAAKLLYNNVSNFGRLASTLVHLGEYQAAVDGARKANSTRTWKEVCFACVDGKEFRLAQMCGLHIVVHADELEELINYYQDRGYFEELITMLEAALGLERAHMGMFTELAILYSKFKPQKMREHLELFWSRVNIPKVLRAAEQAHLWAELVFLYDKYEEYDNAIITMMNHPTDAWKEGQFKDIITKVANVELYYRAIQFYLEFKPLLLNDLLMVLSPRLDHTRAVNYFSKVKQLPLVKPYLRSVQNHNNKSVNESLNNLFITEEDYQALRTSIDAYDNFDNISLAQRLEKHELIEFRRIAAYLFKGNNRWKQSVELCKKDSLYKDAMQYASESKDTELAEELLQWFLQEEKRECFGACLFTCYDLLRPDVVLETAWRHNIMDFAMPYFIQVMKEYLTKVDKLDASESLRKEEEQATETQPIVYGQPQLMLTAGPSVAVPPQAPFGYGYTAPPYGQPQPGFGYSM
Sequence of rab5a_human RAB5A (P20339 whole entry): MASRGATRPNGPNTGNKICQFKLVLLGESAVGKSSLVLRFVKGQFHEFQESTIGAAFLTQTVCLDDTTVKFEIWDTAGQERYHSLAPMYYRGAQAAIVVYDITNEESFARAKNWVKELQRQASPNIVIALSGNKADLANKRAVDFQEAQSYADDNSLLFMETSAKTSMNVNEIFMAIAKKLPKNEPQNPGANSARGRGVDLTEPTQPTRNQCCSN
Sequence of Inositol polyphosphate 5-phosphatase OCRL (Homo sapiens), Q01968 G664D (Q01968 whole entry G664D): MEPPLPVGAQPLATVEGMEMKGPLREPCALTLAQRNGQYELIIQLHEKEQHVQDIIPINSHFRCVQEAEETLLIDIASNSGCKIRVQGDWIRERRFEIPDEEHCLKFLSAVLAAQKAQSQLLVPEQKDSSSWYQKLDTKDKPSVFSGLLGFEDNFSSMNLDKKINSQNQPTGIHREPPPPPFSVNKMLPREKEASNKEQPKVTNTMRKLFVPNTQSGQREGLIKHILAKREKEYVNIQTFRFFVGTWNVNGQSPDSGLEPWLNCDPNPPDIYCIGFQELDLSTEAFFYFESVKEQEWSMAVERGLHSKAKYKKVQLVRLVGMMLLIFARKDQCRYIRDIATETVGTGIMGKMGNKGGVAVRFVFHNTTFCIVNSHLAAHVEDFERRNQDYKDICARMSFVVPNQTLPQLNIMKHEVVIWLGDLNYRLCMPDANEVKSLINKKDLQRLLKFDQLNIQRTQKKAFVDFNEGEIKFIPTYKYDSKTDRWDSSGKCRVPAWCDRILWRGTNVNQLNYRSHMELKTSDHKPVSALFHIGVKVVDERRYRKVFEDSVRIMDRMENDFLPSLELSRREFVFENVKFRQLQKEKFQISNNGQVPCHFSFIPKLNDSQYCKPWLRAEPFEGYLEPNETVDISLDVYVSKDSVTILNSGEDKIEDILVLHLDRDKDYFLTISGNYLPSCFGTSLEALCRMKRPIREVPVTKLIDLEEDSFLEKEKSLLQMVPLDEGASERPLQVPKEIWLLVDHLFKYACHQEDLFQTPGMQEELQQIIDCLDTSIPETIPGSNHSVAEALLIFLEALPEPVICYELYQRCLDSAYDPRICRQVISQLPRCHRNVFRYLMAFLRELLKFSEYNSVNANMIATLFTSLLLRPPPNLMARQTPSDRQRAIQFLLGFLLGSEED
Sequence of rab1a_human RAB1A (P62820 whole entry): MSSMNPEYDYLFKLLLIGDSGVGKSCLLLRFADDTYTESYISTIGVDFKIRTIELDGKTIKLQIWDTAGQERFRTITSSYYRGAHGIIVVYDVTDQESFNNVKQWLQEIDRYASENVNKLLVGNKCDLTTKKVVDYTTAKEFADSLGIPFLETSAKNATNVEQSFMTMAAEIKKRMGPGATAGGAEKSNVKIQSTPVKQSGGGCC
Sequence of rab6a_human RAB6A (P20340 whole entry, looked up): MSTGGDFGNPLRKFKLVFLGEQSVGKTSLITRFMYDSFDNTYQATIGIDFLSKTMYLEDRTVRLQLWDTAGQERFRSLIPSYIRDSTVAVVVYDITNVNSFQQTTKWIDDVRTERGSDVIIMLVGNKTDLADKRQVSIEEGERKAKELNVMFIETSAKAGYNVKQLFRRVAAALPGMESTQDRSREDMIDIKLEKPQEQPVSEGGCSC
Sequence of Inositol polyphosphate 5-phosphatase OCRL (Homo sapiens), Q01968 S564P (Q01968 whole entry S564P): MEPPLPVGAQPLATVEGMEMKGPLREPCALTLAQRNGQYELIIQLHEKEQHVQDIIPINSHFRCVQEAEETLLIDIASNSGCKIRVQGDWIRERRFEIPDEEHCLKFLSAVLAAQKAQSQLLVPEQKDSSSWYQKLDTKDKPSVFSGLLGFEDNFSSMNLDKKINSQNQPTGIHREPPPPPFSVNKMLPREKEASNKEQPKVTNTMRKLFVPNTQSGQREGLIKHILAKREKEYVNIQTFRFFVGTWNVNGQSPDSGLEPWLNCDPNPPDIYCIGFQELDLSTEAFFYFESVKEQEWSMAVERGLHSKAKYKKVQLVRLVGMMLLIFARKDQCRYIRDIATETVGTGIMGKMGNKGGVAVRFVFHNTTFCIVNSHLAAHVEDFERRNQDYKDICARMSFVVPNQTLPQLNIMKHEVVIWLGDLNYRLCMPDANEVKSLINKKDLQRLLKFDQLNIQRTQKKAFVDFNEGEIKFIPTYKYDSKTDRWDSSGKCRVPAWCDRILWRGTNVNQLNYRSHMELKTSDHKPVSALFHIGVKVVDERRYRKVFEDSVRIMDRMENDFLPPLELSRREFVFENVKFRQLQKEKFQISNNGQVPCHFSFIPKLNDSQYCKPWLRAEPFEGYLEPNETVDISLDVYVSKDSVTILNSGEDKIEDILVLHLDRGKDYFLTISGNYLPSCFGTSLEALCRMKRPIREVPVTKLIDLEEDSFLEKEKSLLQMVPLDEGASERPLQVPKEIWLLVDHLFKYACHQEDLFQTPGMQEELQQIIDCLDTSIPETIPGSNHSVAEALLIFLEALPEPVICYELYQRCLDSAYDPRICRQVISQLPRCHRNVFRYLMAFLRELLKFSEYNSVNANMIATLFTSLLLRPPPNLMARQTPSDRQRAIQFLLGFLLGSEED

## Inositol polyphosphate 5-phosphatase OCRL (Homo sapiens), Q01968 D555E
rab5a_human RAB5A [1]
  effect of a mutation on the interaction: decreasing interaction
rab1a_human RAB1A [2]
  effect of a mutation on the interaction: disrupting interaction
clh1_human CLTC [3]
  effect of a mutation on the interaction: decreasing interaction
rab6a_human RAB6A [4]
  effect of a mutation on the interaction: decreasing interaction

## Inositol polyphosphate 5-phosphatase OCRL (Homo sapiens), Q01968 G664D
rab1a_human RAB1A [5]
  effect of a mutation on the interaction: disrupting interaction
rab5a_human RAB5A [6]
  effect of a mutation on the interaction: decreasing interaction
rab6a_human RAB6A [7]
  effect of a mutation on the interaction: disrupting interaction

## Inositol polyphosphate 5-phosphatase OCRL (Homo sapiens), Q01968 N606K
rab6a_human RAB6A [8]
  effect of a mutation on the interaction: increasing interaction
clh1_human CLTC [9]
  effect of a mutation on the interaction: increasing interaction

## Inositol polyphosphate 5-phosphatase OCRL (Homo sapiens), Q01968 P526H
clh1_human CLTC [10]
  effect of a mutation on the interaction: increasing interaction
rab6a_human RAB6A [11]
  effect of a mutation on the interaction: increasing interaction

## Inositol polyphosphate 5-phosphatase OCRL (Homo sapiens), Q01968 S564P
rab1a_human RAB1A [12]
  effect of a mutation on the interaction: disrupting interaction
rab6a_human RAB6A [13]
  effect of a mutation on the interaction: disrupting interaction
rab5a_human RAB5A [14]
  effect of a mutation on the interaction: decreasing interaction

## Inositol polyphosphate 5-phosphatase OCRL (Homo sapiens), Q01968 S568G
rab1a_human RAB1A [15]
  effect of a mutation on the interaction: increasing interaction
rab6a_human RAB6A [16]
  effect of a mutation on the interaction: decreasing interaction
rab5a_human RAB5A [17]
  effect of a mutation on the interaction: increasing interaction
